Our source for the abundance fitness values is the Human Domainome abundance scans (Beltran et al. 2025).

Sequences and labels used below:
B1: POU domain, class 3, transcription factor 3, residues 408 to 463; numbered along this chain, P20264 (parent)
chain: KKRTSIEVSVKGALESHFLKCPKPSAQEITNLADSLQLEKEVVRVWFCNRRQKEKR

± gives the uncertainty stated by the source.

Variants of B1 are the subject of the series. The experiment in a line: abundance fitness (aPCA) (normalised: wild type 0, dead -1); higher = more abundant; growth selection in yeast, the domain comes from the species named. As to conditions: Homo sapiens.
For Q27G, the abundance fitness is -0.076 ± 0.067.
On to Q27I, for which the abundance fitness was -0.312 ± 0.16.
Regarding Q27L, the abundance fitness was -0.091 ± 0.068.
For Q27N, the abundance fitness amounted to 0.098 ± 0.19.
For the variant Q27F, the abundance fitness was -0.27 ± 0.13.
On to Q27W, for which the abundance fitness was -0.222 ± 0.076.
In the case of Q27K, the abundance fitness is -0.095 ± 0.11.
As for K53Q, the abundance fitness was -0.041 ± 0.1.
For the variant K53V, the abundance fitness was -0.03 ± 0.087.
Consider N49A, for which the abundance fitness was -0.142 ± 0.094.
Next, N49C: -0.202 ± 0.11.
As to T4Y, the abundance fitness was -0.19 ± 0.11.
Consider T4Q, for which the abundance fitness came to 0.005 ± 0.11.
The figure for T4A is -0.17 ± 0.079; for T4C it is -0.205 ± 0.11.
For the variant T4P, the abundance fitness is -0.257 ± 0.16.
As for T4R, the abundance fitness was -0.26 ± 0.067.
On to L19H, for which the abundance fitness is -0.173 ± 0.097.
Next, L19C: -0.138 ± 0.091; L19T: -0.155 ± 0.093; L19G: -0.238 ± 0.062.
Next, E15D: -0.753 ± 0.42; E15N: -1.02 ± 0.41.
With V10Q, the abundance fitness is 0.07 ± 0.13.
For V10C, the abundance fitness is -0.108 ± 0.14.
The figure for V10I is -0.066 ± 0.096.
As for V10S, the abundance fitness was -0.153 ± 0.089.
Regarding V10A, the abundance fitness was -0.005 ± 0.086.
V10T: the abundance fitness was -0.023 ± 0.13.
For V10R, the abundance fitness is -0.108 ± 0.075.
As to S5M, the abundance fitness was 0.125 ± 0.12.
As to S5A, the abundance fitness was determined as 0.086 ± 0.079.
As for S5T, the abundance fitness was determined as 0.135 ± 0.098.
In the case of S5Y, the abundance fitness was 0.206 ± 0.12.
Take S5D: the abundance fitness was -0.064 ± 0.12.
Consider K2I, for which the abundance fitness was -0.374 ± 0.17.
For the variant K2G, the abundance fitness is -0.025 ± 0.089.
As to K2E, the abundance fitness is -0.054 ± 0.13.
Consider T30Q, for which the abundance fitness is 0.079 ± 0.11.
Next, R3K: 0.067 ± 0.13.
Take R3A: the abundance fitness is -0.15 ± 0.075.
Consider R3Y, for which the abundance fitness was -0.267 ± 0.19.
Take R3N: the abundance fitness is -0.048 ± 0.2.
Consider R3G, for which the abundance fitness worked out at 0.04 ± 0.064.
As to K40D, the abundance fitness is -0.028 ± 0.16.
Next, K40H: -0.136 ± 0.24.
The figure for K40Q is 0.122 ± 0.14; for K40N it is -0.118 ± 0.18; for K40L it is -0.103 ± 0.092.
Consider K40G, for which the abundance fitness is -0.056 ± 0.07.
In the case of Q52C, the abundance fitness is -0.126 ± 0.11.
With Q52Y, the abundance fitness was -0.257 ± 0.14.
In the case of Q52S, the abundance fitness was 0.014 ± 0.09.
Regarding Q52V, the abundance fitness was -0.112 ± 0.083.
Regarding H17I, the abundance fitness was -0.219 ± 0.14.
For H17N, the abundance fitness is -0.189 ± 0.16.
As for H17Q, the abundance fitness was -0.134 ± 0.12.
Next, H17F: -0.104 ± 0.15.
For H17T, the abundance fitness is -0.234 ± 0.096.
K11N: the abundance fitness was -0.27 ± 0.15.
On to K11A, for which the abundance fitness is -0.099 ± 0.092.
In the case of E54L, the abundance fitness is -0.365 ± 0.08.
On to E54F, for which the abundance fitness was -0.598 ± 0.14.
Regarding P24G, the abundance fitness is -1.05 ± 0.11.
As for P24S, the abundance fitness is -0.874 ± 0.13.
Turning to L14S, the abundance fitness is -0.87 ± 0.097.
L14Q: the abundance fitness is -0.942 ± 0.17.
Next, E7A: -0.096 ± 0.064.
As to E7G, the abundance fitness worked out at 0.013 ± 0.085.
Consider E7L, for which the abundance fitness was -0.09 ± 0.05.
As to E7D, the abundance fitness was determined as 0.05 ± 0.08.
Regarding S16E, the abundance fitness worked out at 0.006 ± 0.091.
As for S16K, the abundance fitness is 0.036 ± 0.12.
As for S16F, the abundance fitness is -0.232 ± 0.099.
Take S16R: the abundance fitness is -0.011 ± 0.063.
As for S16G, the abundance fitness is -0.059 ± 0.065.
Next, K20N: -0.109 ± 0.11; K20H: -0.279 ± 0.14; A13C: -0.199 ± 0.11.
A13I: the abundance fitness is -0.046 ± 0.18.
With A13L, the abundance fitness is -0.093 ± 0.077.
On to A13Y, for which the abundance fitness is -0.17 ± 0.14.
The figure for W46S is -0.422 ± 0.45.
P22G: the abundance fitness is -0.19 ± 0.11.
Consider P22S, for which the abundance fitness was -0.35 ± 0.17.
As to P22A, the abundance fitness is -0.121 ± 0.2.
Regarding A26L, the abundance fitness is -0.005 ± 0.074.
Next, A26Q: -0.024 ± 0.11; S35R: 0.117 ± 0.076; R50P: -0.853 ± 0.12.
R50K: the abundance fitness was -0.364 ± 0.14.
Take R50M: the abundance fitness is -0.497 ± 0.11.
In the case of R50A, the abundance fitness was -0.416 ± 0.073.
Regarding R50C, the abundance fitness was -0.75 ± 0.12.
As for G12R, the abundance fitness was determined as 0.007 ± 0.061.
As for G12Q, the abundance fitness was -0.094 ± 0.14.
With G12V, the abundance fitness was 0.211 ± 0.075.
With V8P, the abundance fitness was 0.195 ± 0.12.
With V8M, the abundance fitness was 0.098 ± 0.12.
The figure for V8I is 0.1 ± 0.084; for E28C it is -0.368 ± 0.12.
The figure for E28S is -0.45 ± 0.09.
Take E28T: the abundance fitness was -0.251 ± 0.13.
L38M: the abundance fitness was -0.13 ± 0.095.
As to L38Q, the abundance fitness was -0.605 ± 0.11.
Turning to L38T, the abundance fitness was -0.18 ± 0.087.
In the case of Q37A, the abundance fitness was found to be 0.013 ± 0.063.
For the variant V43N, the abundance fitness was -0.493 ± 0.42.
Next, V43H: -0.673 ± 0.2; V43P: -0.818 ± 0.13.
With L36G, the abundance fitness is -0.929 ± 0.079.
With L36H, the abundance fitness was -0.434 ± 0.12.
As to L36I, the abundance fitness is -0.377 ± 0.11.
Next, L36Q: -0.812 ± 0.13; L36V: -0.522 ± 0.07.
The figure for L36W is -0.565 ± 0.1.
The figure for I29Y is -0.889 ± 0.23; for I29F it is -0.832 ± 0.2.
For the variant I29L, the abundance fitness was -0.038 ± 0.08.
For the variant E41S, the abundance fitness was -0.243 ± 0.071.
Next, E41H: -0.196 ± 0.12.
Regarding E41T, the abundance fitness is -0.308 ± 0.098.
For the variant E41V, the abundance fitness is -0.884 ± 0.09.
As to S25L, the abundance fitness was -0.559 ± 0.078.
Turning to S25G, the abundance fitness is -0.172 ± 0.063.
In the case of S25K, the abundance fitness was -0.565 ± 0.11.
Consider S25Q, for which the abundance fitness is -0.537 ± 0.11.
Regarding S25I, the abundance fitness is -0.84 ± 0.41.
As for S25M, the abundance fitness is -0.681 ± 0.15.
As for S25E, the abundance fitness was -0.287 ± 0.11.
Take S25Y: the abundance fitness is -0.66 ± 0.13.
For the variant K55R, the abundance fitness was -0.089 ± 0.075.
As to K55D, the abundance fitness is -0.079 ± 0.12.
Take K55E: the abundance fitness turned out to be 0.024 ± 0.11.
Turning to K55N, the abundance fitness was 0.021 ± 0.14.
For the variant K55H, the abundance fitness was -0.122 ± 0.19.
For C48S, the abundance fitness was 0.045 ± 0.07.
Take C48L: the abundance fitness was -0.047 ± 0.079.
Next, I6W: -0.124 ± 0.088; I6N: -0.234 ± 0.19; I6P: 0.01 ± 0.16.
For the variant I6F, the abundance fitness was -0.272 ± 0.12.
In the case of C21E, the abundance fitness was 0.048 ± 0.089.
With C21P, the abundance fitness is -0.719 ± 0.13.
Next, K23A: -0.001 ± 0.077.
On to K23I, for which the abundance fitness was -0.065 ± 0.12.
As to K23M, the abundance fitness is -0.031 ± 0.1.
Take K23H: the abundance fitness was -0.127 ± 0.14.
Take K23F: the abundance fitness is -0.034 ± 0.12.
Consider K23P, for which the abundance fitness was -0.724 ± 0.2.
Regarding K23D, the abundance fitness stood at 0.114 ± 0.099.
Regarding K23L, the abundance fitness is -0.057 ± 0.075.
S9W: the abundance fitness was -0.192 ± 0.12.
With S9Y, the abundance fitness is -0.015 ± 0.22.
Next, F18K: -0.925 ± 0.15; F18V: -0.859 ± 0.077; F18A: -0.84 ± 0.091.
With F18N, the abundance fitness is -1.18 ± 0.24.
Regarding R56W, the abundance fitness was -0.272 ± 0.13.
The figure for V42E is 0.032 ± 0.09; for V42W it is -0.108 ± 0.091.
Turning to V42S, the abundance fitness is -0.094 ± 0.087.
As for V42K, the abundance fitness was -0.333 ± 0.14.
Turning to A33P, the abundance fitness was -0.909 ± 0.15.
For A33V, the abundance fitness is -0.955 ± 0.11.
As to A33N, the abundance fitness was -0.941 ± 0.26.
The figure for A33G is -0.623 ± 0.079.
